According to US20120213794A1 (published 2012):
Blank lines part the entries; values can stand above or below the binder they belong to.

What was measured:
rat PCSK9 = rat PCSK9 (rat, UniProt P59996 31-691, limits assumed); test: Biacore (SPR), IgG2 captured, PCSK9 as analyte
Mouse PCSK9 [1] = target: T1, Mouse PCSK9 (mouse, UniProt Q80W65 35-694, limits assumed); test: Biacore (SPR), IgG2 captured, PCSK9 as analyte
T1 construct: Column head prints 'Mouse 9'; also called Mouse 9; mPCSK9

human PCSK9 [2] = target: T2, human PCSK9 (human, UniProt Q8NBP7 31-692); test: Biacore (SPR), IgG2 captured, PCSK9 as analyte
T2 construct: also called hPCSK9
T2 sequence (Q8NBP7 31-692 limits assumed): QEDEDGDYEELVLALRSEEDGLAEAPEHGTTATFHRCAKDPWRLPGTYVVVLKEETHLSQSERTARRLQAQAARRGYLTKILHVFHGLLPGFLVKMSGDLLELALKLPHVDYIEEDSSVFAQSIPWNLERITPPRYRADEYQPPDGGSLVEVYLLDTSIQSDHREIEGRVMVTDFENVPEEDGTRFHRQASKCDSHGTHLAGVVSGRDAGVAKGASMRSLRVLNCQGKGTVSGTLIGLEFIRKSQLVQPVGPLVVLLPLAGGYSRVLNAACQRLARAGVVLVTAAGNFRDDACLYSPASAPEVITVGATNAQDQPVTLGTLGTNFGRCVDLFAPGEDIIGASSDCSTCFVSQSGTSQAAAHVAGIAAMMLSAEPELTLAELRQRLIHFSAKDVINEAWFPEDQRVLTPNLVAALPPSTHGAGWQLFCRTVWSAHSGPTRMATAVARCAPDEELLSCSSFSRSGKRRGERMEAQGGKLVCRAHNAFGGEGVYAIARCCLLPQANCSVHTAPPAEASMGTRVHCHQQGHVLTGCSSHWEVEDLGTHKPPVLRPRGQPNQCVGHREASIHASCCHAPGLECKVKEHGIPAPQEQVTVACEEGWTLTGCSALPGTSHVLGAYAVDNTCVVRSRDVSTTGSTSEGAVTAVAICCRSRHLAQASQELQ

Rhesus PCSK9 [3] = target: T3, Rhesus PCSK9 (rhesus, UniProt A8T666 31-692, limits assumed); test: Biacore (SPR), IgG2 captured, PCSK9 as analyte
T3 construct: also called rhPCSK9
T3 sequence (A8T666 31-692 limits assumed): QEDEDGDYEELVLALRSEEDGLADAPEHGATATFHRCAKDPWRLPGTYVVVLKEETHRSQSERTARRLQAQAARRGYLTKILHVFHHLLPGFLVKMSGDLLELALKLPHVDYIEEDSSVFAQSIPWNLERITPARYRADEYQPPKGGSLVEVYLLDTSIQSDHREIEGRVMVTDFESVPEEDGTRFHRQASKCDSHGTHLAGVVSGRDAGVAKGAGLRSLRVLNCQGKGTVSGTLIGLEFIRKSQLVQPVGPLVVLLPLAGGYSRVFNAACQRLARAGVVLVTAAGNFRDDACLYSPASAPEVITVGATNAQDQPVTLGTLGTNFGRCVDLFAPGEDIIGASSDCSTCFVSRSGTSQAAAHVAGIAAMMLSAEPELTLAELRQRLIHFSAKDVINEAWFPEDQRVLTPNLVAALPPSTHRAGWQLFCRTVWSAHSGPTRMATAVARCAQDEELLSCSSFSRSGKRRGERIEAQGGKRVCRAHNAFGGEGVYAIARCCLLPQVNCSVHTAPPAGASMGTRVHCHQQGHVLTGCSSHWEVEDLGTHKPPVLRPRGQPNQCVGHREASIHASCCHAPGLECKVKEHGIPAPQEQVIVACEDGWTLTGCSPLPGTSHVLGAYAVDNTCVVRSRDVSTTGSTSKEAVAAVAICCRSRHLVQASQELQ

murine PCSK9 [4] = target: T4, murine PCSK9 (mouse, UniProt Q80W65 35-694, limits assumed); test: cell-based or functional assay
T4 sequence (Q80W65 35-694 limits assumed): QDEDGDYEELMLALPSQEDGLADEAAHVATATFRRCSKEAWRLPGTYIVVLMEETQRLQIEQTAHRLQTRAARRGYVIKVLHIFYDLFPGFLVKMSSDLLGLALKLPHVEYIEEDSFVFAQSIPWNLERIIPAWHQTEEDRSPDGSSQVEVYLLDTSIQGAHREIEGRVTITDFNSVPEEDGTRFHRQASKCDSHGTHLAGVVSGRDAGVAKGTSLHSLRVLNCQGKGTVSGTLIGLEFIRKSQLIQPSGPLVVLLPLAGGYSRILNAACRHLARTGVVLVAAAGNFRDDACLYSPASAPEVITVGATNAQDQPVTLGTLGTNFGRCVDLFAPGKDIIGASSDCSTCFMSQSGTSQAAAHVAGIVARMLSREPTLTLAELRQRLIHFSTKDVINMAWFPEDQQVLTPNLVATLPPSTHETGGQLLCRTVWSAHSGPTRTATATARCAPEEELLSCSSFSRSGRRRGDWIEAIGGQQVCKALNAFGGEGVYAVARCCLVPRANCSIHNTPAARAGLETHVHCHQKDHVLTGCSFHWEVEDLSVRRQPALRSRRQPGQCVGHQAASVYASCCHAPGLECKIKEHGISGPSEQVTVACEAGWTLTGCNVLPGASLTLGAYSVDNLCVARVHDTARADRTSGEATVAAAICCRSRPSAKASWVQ

rhesus PCSK9 [5] = target: T5, rhesus PCSK9 (rhesus, UniProt A8T666 31-692, limits assumed); test: cell-based or functional assay
T5 sequence (A8T666 31-692 limits assumed): as the sequence (A8T666 31-692 limits assumed) above

human PCSK9 [6] = target: T6, human PCSK9 (human, UniProt Q8NBP7 31-692); test: cell-based or functional assay
T6 sequence (Q8NBP7 31-692 limits assumed): as the sequence (Q8NBP7 31-692 limits assumed) above

murine PCSK9 [7] = target: T4, murine PCSK9; test: cell-based or functional assay; remark: listed apart in the source
rhesus PCSK9 [8] = target: T5, rhesus PCSK9; test: cell-based or functional assay; remark: listed apart in the source
human PCSK9 [9] = target: T6, human PCSK9; test: cell-based or functional assay; remark: listed apart in the source
Mouse PCSK9 [10] = target: T1, Mouse PCSK9; test: Biacore (SPR), IgG2 format

T1 sequence (Q80W65 35-694 limits assumed): as the sequence (Q80W65 35-694 limits assumed) above
Sequence of rat PCSK9 (P59996 31-691 limits assumed): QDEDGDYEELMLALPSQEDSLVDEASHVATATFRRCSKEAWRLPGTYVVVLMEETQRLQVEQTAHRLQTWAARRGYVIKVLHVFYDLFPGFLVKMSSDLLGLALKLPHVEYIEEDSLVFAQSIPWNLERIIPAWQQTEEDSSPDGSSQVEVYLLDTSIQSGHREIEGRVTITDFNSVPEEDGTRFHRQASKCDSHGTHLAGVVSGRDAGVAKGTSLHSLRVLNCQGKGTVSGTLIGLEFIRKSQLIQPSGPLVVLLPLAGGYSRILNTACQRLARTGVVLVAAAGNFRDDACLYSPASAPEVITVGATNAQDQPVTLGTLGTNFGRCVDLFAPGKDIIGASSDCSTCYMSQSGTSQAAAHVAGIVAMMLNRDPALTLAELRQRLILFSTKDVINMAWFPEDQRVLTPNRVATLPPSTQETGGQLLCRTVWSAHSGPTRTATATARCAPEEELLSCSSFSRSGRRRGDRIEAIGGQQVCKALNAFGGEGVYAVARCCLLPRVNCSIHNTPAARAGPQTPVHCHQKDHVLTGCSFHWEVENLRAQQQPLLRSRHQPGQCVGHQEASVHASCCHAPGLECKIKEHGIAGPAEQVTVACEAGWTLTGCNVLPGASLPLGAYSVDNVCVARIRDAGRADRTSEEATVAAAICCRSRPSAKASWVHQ

- Kd (rat PCSK9): ~100 nM
- Kd (Mouse PCSK9 [1]): 2.76 nM
B1: AX132 IgG2 (antibody)
heavy: EVQLLESGGGLVQPGGSLRLSCKASGYTFSSYGMYWVRQAPGKGLEWIGWIDPGSGGTKYNEKFKGKATISRDNSKNTLYLQMNSLRAEDTAVYYCARERYGYYFDYWGQGTLVTVSSASTKGPSVFPLAPCSRSTSESTAALGCLVKDYFPEPVTVSWNSGALTSGVHTFPAVLQSSGLYSLSSVVTVPSSNFGTQTYTCNVDHKPSNTKVDKTVERKCCVECPPCPAPPVAGPSVFLFPPKPKDTLMISRTPEVTCVVVDVSHEDPEVQFNWYVDGVEVHNAKTKPREEQFNSTFRVVSVLTVVHQDWLNGKEYKCKVSNKGLPAPIEKTISKTKGQPREPQVYTLPPSREEMTKNQVSLTCLVKGFYPSDIAVEWESNGQPENNYKTTPPMLDSDGSFFLYSKLTVDKSRWQQGNVFSCSVMHEALHNHYTQKSLSLSPGK
light: EIVLTQSPATLSLSPGERATITCRASQYVGSYLNWYQQKPGQAPRLLIYDASNRATGIPARFSGSGSGTDFTLTISSLEPEDFAVYYCQVWDSSPPVVFGGGTKVEIKRTVAAPSVFIFPPSDEQLKSGTASVVCLLNNFYPREAKVQWKVDNALQSGNSQESVTEQDSKDSTYSLSSTLTLSKADYEKHKVYACEVTHQGLSSPVTKSFNRGEC

- Kd (Mouse PCSK9 [1]): 3.25 nM
- Kd (human PCSK9 [2]): 2.07 nM
- Kd (Rhesus PCSK9 [3]): 1.89 nM
B2: AX213 IgG2 (antibody, V domains shown)
VH: EVQLLESGGGLVQPGGSLRLSCKASGYTFSRYGINWVRQAPGKGLEWIGRIDPGNGGTRYNEKFKGKATISRDNSKNTLYLQMNSLRAEDTAVYYCARANDGYSFDYWGQGTLVTVSS
VL: EIVLTQSPATLSLSPGERATITCRASQYVGSYLNWYQQKPGQAPRLLIYDASNRATGIPARFSGSGSGTDFTLTISSLEPEDFAVYYCQVWDSSPPVVFGGGTKVEIKR

- Fab IC50 (nM), inhibition of PCSK9 on LDL uptake (murine PCSK9 [4]): 326 nM
- Fab IC50 (nM), inhibition of PCSK9 on LDL uptake (rhesus PCSK9 [5]): 194 nM
- Fab IC50 (nM), inhibition of PCSK9 on LDL uptake (human PCSK9 [6]): 179 nM
B3: AX114 Fab (Fab, V domains shown)
VH: EVQLLESGGGLVQPGGSLRLSCKASGYTFSSYGMYWVRQAPGKGLEWIGWIDPGSGGTKYNEKFKGKATISRDNSKNTLYLQMNSLRAEDTAVYYCARERYGYYFDYWGQGTLVTVSS
VL: EIVLTQSPATLSLSPGERATITCRASQYVGTYLNWYQQKPGQAPRLLIYDASNRATGIPARFSGSGSGTDFTLTISSLEPEDFAVYYCQVWDSSPPVAFGGGTKVEIK

- IgG2 IC50 (nM), inhibition of PCSK9 (LDL uptake assay) (murine PCSK9 [7]): 9.4 nM
- IgG2 IC50 (nM), inhibition of PCSK9 (LDL uptake assay) (rhesus PCSK9 [8]): 11.5 nM
- IgG2 IC50 (nM), inhibition of PCSK9 (LDL uptake assay) (human PCSK9 [9]): 8.9 nM
B4: AX132 IgG2 (antibody)
heavy: EVQLLESGGGLVQPGGSLRLSCKASGYTFSSYGMYWVRQAPGKGLEWIGWIDPGSGGTKYNEKFKGKATISRDNSKNTLYLQMNSLRAEDTAVYYCARERYGYYFDYWGQGTLVTVSSASTKGPSVFPLAPCSRSTSESTAALGCLVKDYFPEPVTVSWNSGALTSGVHTFPAVLQSSGLYSLSSVVTVPSSNFGTQTYTCNVDHKPSNTKVDKTVERKCCVECPPCPAPPVAGPSVFLFPPKPKDTLMISRTPEVTCVVVDVSHEDPEVQFNWYVDGVEVHNAKTKPREEQFNSTFRVVSVLTVVHQDWLNGKEYKCKVSNKGLPAPIEKTISKTKGQPREPQVYTLPPSREEMTKNQVSLTCLVKGFYPSDIAVEWESNGQPENNYKTTPPMLDSDGSFFLYSKLTVDKSRWQQGNVFSCSVMHEALHNHYTQKSLSLSPGK
VL: EIVLTQSPATLSLSPGERATITCRASQYVGSYLNWYQQKPGQAPRLLIYDASNRATGIPARFSGSGSGTDFTLTISSLEPEDFAVYYCQVWDSSPPVVFGGGTKVEIK

- Fab IC50 (nM), inhibition of PCSK9 on LDL uptake (murine PCSK9 [4]): 26.9 nM
- Fab IC50 (nM), inhibition of PCSK9 on LDL uptake (human PCSK9 [6]): 62.2 nM
B5: AX132 Fab (Fab, V domains shown)
VH: EVQLLESGGGLVQPGGSLRLSCKASGYTFSSYGMYWVRQAPGKGLEWIGWIDPGSGGTKYNEKFKGKATISRDNSKNTLYLQMNSLRAEDTAVYYCARERYGYYFDYWGQGTLVTVSS
VL: EIVLTQSPATLSLSPGERATITCRASQYVGSYLNWYQQKPGQAPRLLIYDASNRATGIPARFSGSGSGTDFTLTISSLEPEDFAVYYCQVWDSSPPVVFGGGTKVEIKR

- Kd (Mouse PCSK9 [1]): 11.2 nM
- Kd (human PCSK9 [2]): 24 nM
- Kd (Rhesus PCSK9 [3]): 11.6 nM
B6: AX114 IgG2 (antibody, V domains shown)
VH: EVQLLESGGGLVQPGGSLRLSCKASGYTFSSYGMYWVRQAPGKGLEWIGWIDPGSGGTKYNEKFKGKATISRDNSKNTLYLQMNSLRAEDTAVYYCARERYGYYFDYWGQGTLVTVSS
VL: EIVLTQSPATLSLSPGERATITCRASQYVGTYLNWYQQKPGQAPRLLIYDASNRATGIPARFSGSGSGTDFTLTISSLEPEDFAVYYCQVWDSSPPVAFGGGTKVEIK

- Fab IC50 (nM), inhibition of PCSK9 on LDL uptake (murine PCSK9 [4]): 27.4 nM
- Fab IC50 (nM), inhibition of PCSK9 on LDL uptake (human PCSK9 [6]): 74.4 nM
B7: AX137 Fab (Fab, V domains shown)
VH: EVQLLESGGGLVQPGGSLRLSCKASGYTFSSYGMYWVRQAPGKGLEWIGWIDPGSGGTKYNEKFKGKATISRDNSKNTLYLQMNSLRAEDTAVYYCARERYGYYFDYWGQGTLVTVSS
VL: EIVLTQSPATLSLSPGERATITCRASQYIGSYLNWYQQKPGQAPRLLIYDASNRATGIPARFSGSGSGTDFTLTISSLEPEDFAVYYCQAWDSSPPVVFGGGTKVEIK

- IgG2 IC50 (nM), inhibition of PCSK9 (LDL uptake assay) (murine PCSK9 [7]): 11.1 nM
- IgG2 IC50 (nM), inhibition of PCSK9 (LDL uptake assay) (rhesus PCSK9 [8]): 4.4 nM
- IgG2 IC50 (nM), inhibition of PCSK9 (LDL uptake assay) (human PCSK9 [9]): 7.5 nM
B8: AX211 IgG2 (antibody, V domains shown)
VH: QVQLLESGGGLVQPGGSLRLSCKASGYTFSRQGFTWVRQAPGKGLEWIGWIDPGNGGTRYNEKFKGKATISRDNSKNTLYLQMNSLRAEDTAVYYCARYRVGYSLDYWGQGTLVTVSS
VL: EIVLTQSPATLSLSPGERATITCRASQYVGSYLNWYQQKPGQAPRLLIYDASNRATGIPARFSGSGSGTDFTLTISSLEPEDFAVYYCQVWDSSPPVVFGGGTKVEIK

- Fab IC50 (nM), inhibition of PCSK9 on LDL uptake (murine PCSK9 [4]): 22.9 nM
- Fab IC50 (nM), inhibition of PCSK9 on LDL uptake (human PCSK9 [6]): 37.7 nM
B9: AX139 Fab (Fab, V domains shown)
VH: EVQLLESGGGLVQPGGSLRLSCKASGYTFSSYGMYWVRQAPGKGLEWIGWIDPGSGGTKYNEKFKGKATISRDNSKNTLYLQMNSLRAEDTAVYYCARERYGYYFDYWGQGTLVTVSS
VL: EIVLTQSPATLSLSPGERATITCRASQYVGSYLNWYQQKPGQAPRLLIYDAANRATGIPARFSGSGSGTDFTLTISSLEPEDFAVYYCQVWDSSPPVVFGGGTKVEIK

- IgG2 IC50 (nM), inhibition of PCSK9 (LDL uptake assay) (murine PCSK9 [7]): 5.3 nM
- IgG2 IC50 (nM), inhibition of PCSK9 (LDL uptake assay) (rhesus PCSK9 [8]): 10 nM
- IgG2 IC50 (nM), inhibition of PCSK9 (LDL uptake assay) (human PCSK9 [9]): 9.8 nM
B10: AX137 IgG2 (antibody, V domains shown)
VH: EVQLLESGGGLVQPGGSLRLSCKASGYTFSSYGMYWVRQAPGKGLEWIGWIDPGSGGTKYNEKFKGKATISRDNSKNTLYLQMNSLRAEDTAVYYCARERYGYYFDYWGQGTLVTVSS
VL: EIVLTQSPATLSLSPGERATITCRASQYIGSYLNWYQQKPGQAPRLLIYDASNRATGIPARFSGSGSGTDFTLTISSLEPEDFAVYYCQAWDSSPPVVFGGGTKVEIK

- Kd (Mouse PCSK9 [1]): 3.6 nM
- Kd (human PCSK9 [2]): 2.64 nM
- Kd (Rhesus PCSK9 [3]): 0.944 nM
B11: AX210 IgG2 (antibody, V domains shown)
VH: QVQLLESGGGLVQPGGSLRLSCKASGYTFSSYSIYWVRQAPGKGLEWIGWIDPGNGGTRYNQKFQSKATISRDNSKNTLYLQMNSLRAEDTAVYYCARARVGYSLDYWGQGTLVTVSS
VL: EIVLTQSPATLSLSPGERATITCRASQYVGSYLNWYQQKPGQAPRLLIYDASNRATGIPARFSGSGSGTDFTLTISSLEPEDFAVYYCQVWDSSPPVVFGGGTKVEIK

- IgG2 IC50 (nM), inhibition of PCSK9 (LDL uptake assay) (murine PCSK9 [7]): 15.9 nM
- IgG2 IC50 (nM), inhibition of PCSK9 (LDL uptake assay) (rhesus PCSK9 [8]): 9.7 nM
- IgG2 IC50 (nM), inhibition of PCSK9 (LDL uptake assay) (human PCSK9 [9]): 6.5 nM
B12: AX210 IgG2 (antibody, V domains shown)
VH: QVQLLESGGGLVQPGGSLRLSCKASGYTFSSYSIYWVRQAPGKGLEWIGWIDPGNGGTRYNQKFQSKATISRDNSKNTLYLQMNSLRAEDTAVYYCARARVGYSLDYWGQGTLVTVSS
VL: EIVLTQSPATLSLSPGERATITCRASQYVGSYLNWYQQKPGQAPRLLIYDASNRATGIPARFSGSGSGTDFTLTISSLEPEDFAVYYCQVWDSSPPVVFGGGTKVEIK

- binding result (Mouse PCSK9 [10]): no binding
- Kd (human PCSK9 [2]): 9.98 nM
- Kd (Rhesus PCSK9 [3]): 10 nM
B13: AX137 IgG2 (antibody, V domains shown)
VH: EVQLLESGGGLVQPGGSLRLSCKASGYTFSSYGMYWVRQAPGKGLEWIGWIDPGSGGTKYNEKFKGKATISRDNSKNTLYLQMNSLRAEDTAVYYCARERYGYYFDYWGQGTLVTVSS
VL: EIVLTQSPATLSLSPGERATITCRASQYIGSYLNWYQQKPGQAPRLLIYDASNRATGIPARFSGSGSGTDFTLTISSLEPEDFAVYYCQAWDSSPPVVFGGGTKVEIK

- Kd (Mouse PCSK9 [1]): 1.66 nM
- Kd (human PCSK9 [2]): 1.63 nM
- Kd (Rhesus PCSK9 [3]): 0.493 nM
B14: AX211 IgG2 (antibody, V domains shown)
VH: QVQLLESGGGLVQPGGSLRLSCKASGYTFSRQGFTWVRQAPGKGLEWIGWIDPGNGGTRYNEKFKGKATISRDNSKNTLYLQMNSLRAEDTAVYYCARYRVGYSLDYWGQGTLVTVSS
VL: EIVLTQSPATLSLSPGERATITCRASQYVGSYLNWYQQKPGQAPRLLIYDASNRATGIPARFSGSGSGTDFTLTISSLEPEDFAVYYCQVWDSSPPVVFGGGTKVEIK

- Kd (Mouse PCSK9 [1]): 2.74 nM
- Kd (human PCSK9 [2]): 2.12 nM
- Kd (Rhesus PCSK9 [3]): 0.774 nM
B15: AX212 IgG2 (antibody, V domains shown)
VH: QVQLLESGGGLVQPGGSLRLSCKASGYTFSSYSFSWVRQAPGKGLEWIGYIDPGSGGTKYNQKFQGKATISRDNSKNTLYLQMNSLRAEDTAVYYCARQRVGYSLDYWGQGTLVTVSS
VL: EIVLTQSPATLSLSPGERATITCRASQYVGSYLNWYQQKPGQAPRLLIYDASNRATGIPARFSGSGSGTDFTLTISSLEPEDFAVYYCQVWDSSPPVVFGGGTKVEIK
